Values quoted from earlier work as cited in publication PMC9784434.

Target: NKG2D (Homo sapiens) (UniProt P26718)
Chain of UniProt P26718 (P26718 whole entry): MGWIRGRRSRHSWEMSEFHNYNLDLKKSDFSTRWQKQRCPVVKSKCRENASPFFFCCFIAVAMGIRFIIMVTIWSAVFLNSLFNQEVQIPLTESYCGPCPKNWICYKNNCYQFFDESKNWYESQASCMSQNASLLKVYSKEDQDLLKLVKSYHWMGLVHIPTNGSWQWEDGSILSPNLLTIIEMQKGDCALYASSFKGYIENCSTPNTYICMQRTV

MICB (from UniProt Q29980)
Kd: 800 nM
